Numbering of substitutions follows the chain as printed. Blank lines part the entries; values can stand above or below the binder they belong to.
Columns and labels:
[1] = biological target: T1, human PTH1R on Saos-2 cells (endogenous) (human, UniProt Q03431 27-593); assay: cell-based or functional assay
T1 sequence (looked up): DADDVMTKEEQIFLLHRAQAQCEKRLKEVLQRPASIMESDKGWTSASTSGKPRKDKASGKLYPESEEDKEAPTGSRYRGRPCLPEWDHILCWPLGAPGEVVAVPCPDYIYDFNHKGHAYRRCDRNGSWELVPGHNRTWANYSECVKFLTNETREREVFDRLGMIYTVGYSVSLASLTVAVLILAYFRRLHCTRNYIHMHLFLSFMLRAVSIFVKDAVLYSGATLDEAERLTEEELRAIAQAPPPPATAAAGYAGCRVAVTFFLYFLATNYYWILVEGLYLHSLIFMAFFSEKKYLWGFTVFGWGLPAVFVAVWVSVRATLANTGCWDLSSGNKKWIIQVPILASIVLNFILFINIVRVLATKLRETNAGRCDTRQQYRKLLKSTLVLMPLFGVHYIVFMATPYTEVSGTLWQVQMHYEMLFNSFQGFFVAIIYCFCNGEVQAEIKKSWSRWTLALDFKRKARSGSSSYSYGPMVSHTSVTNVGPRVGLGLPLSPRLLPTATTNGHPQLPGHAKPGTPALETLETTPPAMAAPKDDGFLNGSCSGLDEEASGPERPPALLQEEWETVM

[2] = biological target: T2, mouse PTH1R overexpressed on CHO cells (mouse, UniProt P41593 27-591); assay: cell-based or functional assay
T2 sequence (looked up): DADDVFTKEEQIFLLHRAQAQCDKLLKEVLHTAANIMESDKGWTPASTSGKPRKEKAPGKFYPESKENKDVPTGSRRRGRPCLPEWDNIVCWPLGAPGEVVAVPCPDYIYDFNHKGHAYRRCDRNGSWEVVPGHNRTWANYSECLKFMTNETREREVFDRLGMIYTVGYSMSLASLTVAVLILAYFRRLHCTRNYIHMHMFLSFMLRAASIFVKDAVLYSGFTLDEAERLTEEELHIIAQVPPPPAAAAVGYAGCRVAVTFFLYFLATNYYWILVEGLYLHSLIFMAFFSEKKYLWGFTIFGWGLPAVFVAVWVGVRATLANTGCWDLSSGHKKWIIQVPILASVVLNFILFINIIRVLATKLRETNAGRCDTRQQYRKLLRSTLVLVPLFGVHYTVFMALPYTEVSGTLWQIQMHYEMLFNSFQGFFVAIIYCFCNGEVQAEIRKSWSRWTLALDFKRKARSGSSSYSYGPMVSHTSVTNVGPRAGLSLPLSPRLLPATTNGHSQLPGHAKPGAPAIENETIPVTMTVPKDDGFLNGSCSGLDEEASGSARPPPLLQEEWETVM

[3] = biological target: T3, rat PTH1R on UMR106 cells (rat, UniProt P25961 27-591); assay: cell-based or functional assay
T3 sequence (looked up): T2 sequence (looked up) with P58S, L497P, I518T, N520T, I523L, T528A

[4] = biological target: T4, human PTH1R overexpressed on CHO cells (human, UniProt Q03431 27-593); assay: cell-based or functional assay
T4 sequence (looked up): T1 sequence (looked up)

[5] = biological target: T2, mouse PTH1R overexpressed on CHO cells; assay: flow cytometry on CHO cells, antibody alone
Description: (§1) To characterize antibody binding to PTH1R, cells were labeled with either CellTrace™ CFSE or CellTrace™ Violet. Unlabeled CHOK1 parent, CHO human PTH1R labeled with CellTrace™CFSE, and CHO mouse PTH1R labeled with CellTrace™Violet were pooled together and stained with increasing concentrations of antibody. Antibodies were incubated for 24 hr at 4° C. followed by two washes with FACS Buffer (0.5% BSA, 0.1% NaN3 in DPBS). Cells were then incubated with Allophycocyanin (APC) AffiniPure F(ab′)₂ Fragment Goat Anti-Human IgG (H+L) (Jackson ImmunoResearch, West Grove, Pa.) for 20 minutes at 4° C. Followed by two washes, cells were resuspended in FACS Buffer. Samples were acquired using BD Cytometer (BD Biosciences, San Jose, Calif.) and data were analyzed using FlowJo (FlowJo, LLC, Ashland, Oreg.) and Prism (GraphPad Software, La Jolla, Calif.).

[6] = biological target: T4, human PTH1R overexpressed on CHO cells; assay: flow cytometry on CHO cells, antibody alone
Description: as §1

[7] = biological target: T2, mouse PTH1R overexpressed on CHO cells; assay: flow cytometry on CHO cells, 24 hr at 4 C
Description: as §1

[8] = biological target: T4, human PTH1R overexpressed on CHO cells; assay: flow cytometry on CHO cells, 24 hr at 4 C
Description: as §1

[9] = biological target: T2, mouse PTH1R overexpressed on CHO cells; assay: flow cytometry on CHO cells, with 1 uM PTH as competitor
Description: as §1

[10] = biological target: T4, human PTH1R overexpressed on CHO cells; assay: as above
Description: as §1

EC50 of PTH(1-34), cAMP assay, with 267 nM IgG [1]: 38.1 nM
EC50 of PTHrP(1-34), cAMP assay, with 267 nM IgG [1]: 63 nM
EC50 of PTH(1-34), cAMP assay, with 267 nM IgG [2]: 2.15 nM
EC50 of PTH(1-34), cAMP assay, with 267 nM IgG [3]: 13.7 nM
EC50 of PTH(1-34), cAMP assay, with 267 nM IgG [4]: 0.404 nM
EC50 [5]: 0.337 nM
EC50 [6]: 0.196 nM
EC50 [7]: 0.343 nM
EC50 [8]: 0.202 nM
EC50 [9]: 0.778 nM
EC50 [10]: 5.39 nM
B1: XPA.85.341 (antibody, V domains shown)
VH: EVQLVETGGGVVRPGGSLRLSCAASGFTFSSSAMSWVRQTPGKELQWVSAITPGGEGTYYADVVKGRFTISRDNSKDTLYLQMDSLRAEDTAVYYCARDLYGSYGDAFDIWGQGTLVTVSS
VL: SYELTQPSSVSVSPGQTASITCSGDKLGEKYASWYQQKPGQSPVLVMFEDTKRPSGIPERFSGSNSGNTATLTISGTQAEDEADYYCQAWDSSWVFGGGTQLTVL
notes: Light-chain-shuffled variant of XPA.85.017

EC50 of PTH(1-34), cAMP assay, with 267 nM IgG [1]: 24.8 nM
EC50 of PTHrP(1-34), cAMP assay, with 267 nM IgG [1]: 31.4 nM
EC50 of PTH(1-34), cAMP assay, with 267 nM IgG [2]: 1.95 nM
EC50 of PTH(1-34), cAMP assay, with 267 nM IgG [3]: 7.9 nM
EC50 of PTHrP(1-34), cAMP assay, with 267 nM IgG [3]: 3.48 nM
EC50 of PTH(1-34), cAMP assay, with 267 nM IgG [4]: 0.613 nM
EC50 [5]: 0.258 nM
EC50 [6]: 0.0984 nM
EC50 [7]: 0.234 nM
EC50 [8]: 0.142 nM
EC50 [9]: 0.327 nM
EC50 [10]: 2.98 nM
B2: XPA.85.339 (antibody, V domains shown)
VH: B1 VH
VL: SYELTQPPSVSVAPGQTATITCSGDRLGDKFISWYQQKPGQSPLLVIFEDNERPSRIPERFSGSNSGNSATLTISGTQAVDEADYYCQAWDSSWVFGGGTQLTVL
notes: as for B1

EC50 of PTH(1-34), cAMP assay, with 267 nM IgG [1]: 78.6 nM
EC50 of PTHrP(1-34), cAMP assay, with 267 nM IgG [1]: 62.2 nM
fold-shift in PTH(1-34) EC50 vs vehicle only, cAMP assay [1]: > 100 fold
fold-shift in PTHrP(1-34) EC50 vs vehicle only, cAMP assay [1]: 89 fold
EC50 of PTH(1-34), cAMP assay, with 267 nM IgG [2]: 13.6 nM
EC50 of PTHrP(1-34), cAMP assay, with 267 nM IgG [2]: 5.77 nM
fold-shift in PTH(1-34) EC50 vs vehicle only, cAMP assay [2]: > 100 fold
fold-shift in PTHrP(1-34) EC50 vs vehicle only, cAMP assay [2]: > 100 fold
EC50 of PTH(1-34), cAMP assay, with 267 nM IgG [3]: 66.7 nM
EC50 of PTHrP(1-34), cAMP assay, with 267 nM IgG [3]: 11.6 nM
fold-shift in PTH(1-34) EC50 vs vehicle only, cAMP assay [3]: > 100 fold
fold-shift in PTHrP(1-34) EC50 vs vehicle only, cAMP assay [3]: 35 fold
EC50 of PTH(1-34), cAMP assay, with 267 nM IgG [4]: 0.908 nM
EC50 of PTHrP(1-34), cAMP assay, with 267 nM IgG [4]: 52.7 nM
fold-shift in PTH(1-34) EC50 vs vehicle only, cAMP assay [4]: 29 fold
fold-shift in PTHrP(1-34) EC50 vs vehicle only, cAMP assay [4]: > 100 fold
EC50 [5]: 0.281 nM
EC50 [6]: 0.0909 nM
EC50 [7]: 0.216 nM
EC50 [8]: 0.044 nM
EC50 [9]: 0.206 nM
EC50 [10]: 1.86 nM
B3: XPA.85.287 (antibody, V domains shown)
VH: B1 VH
VL: SYVLTQPPSVSVAPGQTARITCSGDKLGDRYVSWYQQKPGQSPVLVMFEDTGRPAGIPERFSGSNSGNTATLTISGTQAEDEADYYCQAWGTSWVFGGGTQLTVL
notes: also called Ab287

Source: patent publication US20200317817A1 (XOMA US, published 2020)
